Source: PMC9482650, “Quantitative fragmentomics allow affinity mapping of interactomes” (Nature Communications, 2022)

Legend:
Experiment in all cases: holdup assay
Parameters in all cases: key: below the threshold = too weak to quantify, mostly under pKd 3.1 to 4
FRMPD3, Q5JV73 = biological target: FRMPD3, Q5JV73
MAGI1_1, Q96QZ7 = biological target: MAGI1_1, Q96QZ7
LIN7C, Q9NUP9 = biological target: T1, LIN7C, Q9NUP9
T1 sequence (Q9NUP9 88-185, limits assumed, looked up): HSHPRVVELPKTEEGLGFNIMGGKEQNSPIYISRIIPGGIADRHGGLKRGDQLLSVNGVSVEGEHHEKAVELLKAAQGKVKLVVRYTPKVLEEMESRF

FRMPD4, Q14CM0 = biological target: FRMPD4, Q14CM0
PDZRN3_1, Q9UPQ7 = biological target: T2, PDZRN3_1, Q9UPQ7
T2 sequence (Q9UPQ7 244-349, limits assumed, looked up): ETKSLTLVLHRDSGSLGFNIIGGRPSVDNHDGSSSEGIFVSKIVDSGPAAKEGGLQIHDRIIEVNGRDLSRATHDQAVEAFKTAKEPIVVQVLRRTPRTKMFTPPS

GRIP2_4, Q9C0E4 = biological target: GRIP2_4, Q9C0E4
DLG1_2, Q12959 = biological target: DLG1_2, Q12959
MAGI2_5, Q86UL8 = biological target: MAGI2_5, Q86UL8
DLG4_1, P78352 = biological target: DLG4_1, P78352
HTRA1, Q92743 = biological target: HTRA1, Q92743
GORASP1, Q9BQQ3 = biological target: GORASP1, Q9BQQ3
DLG4_2, P78352 = biological target: DLG4_2, P78352
GRIP2_7, Q9C0E4 = biological target: GRIP2_7, Q9C0E4
Inadl_4, Q8NI35 = biological target: Inadl_4, Q8NI35
HTRA4, P83105 = biological target: T3, HTRA4, P83105
T3 sequence (P83105 378-476, limits assumed, looked up): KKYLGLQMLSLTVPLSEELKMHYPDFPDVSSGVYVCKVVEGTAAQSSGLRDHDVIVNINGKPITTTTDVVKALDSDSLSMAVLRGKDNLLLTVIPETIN

LDB3, O75112 = biological target: LDB3, O75112
PDLIM1, O00151 = biological target: PDLIM1, O00151
DLG4_3, P78352 = biological target: DLG4_3, P78352
LNX2_2, Q8N448 = biological target: T4, LNX2_2, Q8N448
T4 sequence (Q8N448 334-432, limits assumed, looked up): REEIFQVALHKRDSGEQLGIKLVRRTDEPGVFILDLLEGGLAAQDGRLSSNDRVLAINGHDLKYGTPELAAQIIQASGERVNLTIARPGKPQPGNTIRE

GRASP, Q7Z6J2 = biological target: GRASP, Q7Z6J2
Inadl_5, Q8NI35 = biological target: Inadl_5, Q8NI35
GOPC, Q9HD26 = biological target: GOPC, Q9HD26
ARHGAP21, Q5T5U3 = biological target: T5, ARHGAP21, Q5T5U3
T5 sequence (Q5T5U3 45-169, limits assumed, looked up): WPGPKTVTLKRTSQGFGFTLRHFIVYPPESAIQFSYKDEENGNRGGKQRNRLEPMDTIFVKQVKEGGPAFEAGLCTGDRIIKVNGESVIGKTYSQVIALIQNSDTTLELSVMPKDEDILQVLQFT

MAGI2_3, Q86UL8 = biological target: MAGI2_3, Q86UL8
IL16_4, Q14005 = biological target: IL16_4, Q14005
LNX1_1, Q8TBB1 = biological target: LNX1_1, Q8TBB1
TJP1_2, Q07157 = biological target: TJP1_2, Q07157
LAP2, Q96RT1 = biological target: LAP2, Q96RT1
Inadl_8, Q8NI35 = biological target: Inadl_8, Q8NI35
DLG2_3, Q15700 = biological target: DLG2_3, Q15700
APBA2_2, Q99767 = biological target: T6, APBA2_2, Q99767
T6 sequence (Q99767 654-744, limits assumed, looked up): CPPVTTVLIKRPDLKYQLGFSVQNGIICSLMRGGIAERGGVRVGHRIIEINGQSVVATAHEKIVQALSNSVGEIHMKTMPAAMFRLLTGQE

IL16_3, Q14005 = biological target: IL16_3, Q14005
MAGI2_2, Q86UL8 = biological target: MAGI2_2, Q86UL8
[1] = plain residues with an end cap or a label only (N-terminal biotin on a linker: (peg)3)
[2] = plain residues with an end cap or a label only (N-terminal biotin on a linker: ado-ado)

Sequence of DLG1_2, Q12959 (Q12959 314-412): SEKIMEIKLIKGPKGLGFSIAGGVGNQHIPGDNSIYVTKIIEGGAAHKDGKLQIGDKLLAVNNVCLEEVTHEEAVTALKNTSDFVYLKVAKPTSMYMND
Sequence of PDLIM1, O00151 (O00151 1-87): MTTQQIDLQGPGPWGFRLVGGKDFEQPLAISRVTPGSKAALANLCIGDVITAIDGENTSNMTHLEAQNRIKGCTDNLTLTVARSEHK
Sequence of GORASP1, Q9BQQ3 (Q9BQQ3 1-208): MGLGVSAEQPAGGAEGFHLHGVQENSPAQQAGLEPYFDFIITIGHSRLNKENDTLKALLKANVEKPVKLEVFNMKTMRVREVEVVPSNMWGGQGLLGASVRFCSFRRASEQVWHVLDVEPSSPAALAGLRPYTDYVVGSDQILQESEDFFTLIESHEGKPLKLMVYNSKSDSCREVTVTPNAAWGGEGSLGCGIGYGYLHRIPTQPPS
Sequence of LNX1_1, Q8TBB1 (Q8TBB1 261-371): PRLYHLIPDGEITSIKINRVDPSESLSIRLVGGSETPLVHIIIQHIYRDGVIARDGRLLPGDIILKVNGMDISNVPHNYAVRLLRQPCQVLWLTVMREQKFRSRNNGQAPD
Sequence of Inadl_4, Q8NI35 (Q8NI35 547-651): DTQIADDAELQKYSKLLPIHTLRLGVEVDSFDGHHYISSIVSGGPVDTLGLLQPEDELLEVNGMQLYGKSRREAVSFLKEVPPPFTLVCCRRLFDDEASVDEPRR
Sequence of GRIP2_7, Q9C0E4 (Q9C0E4 934-1023): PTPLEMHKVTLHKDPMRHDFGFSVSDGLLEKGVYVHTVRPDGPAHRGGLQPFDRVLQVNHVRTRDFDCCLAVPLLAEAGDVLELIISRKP
Sequence of Inadl_5, Q8NI35 (Q8NI35 673-780): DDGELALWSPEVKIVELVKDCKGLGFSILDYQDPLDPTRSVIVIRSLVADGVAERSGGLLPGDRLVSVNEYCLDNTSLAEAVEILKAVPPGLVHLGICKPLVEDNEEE
Sequence of HTRA1, Q92743 (Q92743 360-477): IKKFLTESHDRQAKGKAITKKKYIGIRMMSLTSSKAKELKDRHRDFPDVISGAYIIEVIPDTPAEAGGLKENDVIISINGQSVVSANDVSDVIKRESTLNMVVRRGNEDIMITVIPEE
Sequence of MAGI2_2, Q86UL8 (Q86UL8 410-522): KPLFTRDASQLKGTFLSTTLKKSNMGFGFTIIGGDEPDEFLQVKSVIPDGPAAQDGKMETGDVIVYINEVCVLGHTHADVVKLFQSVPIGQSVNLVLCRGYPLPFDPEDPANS
Sequence of MAGI2_3, Q86UL8 (Q86UL8 600-682): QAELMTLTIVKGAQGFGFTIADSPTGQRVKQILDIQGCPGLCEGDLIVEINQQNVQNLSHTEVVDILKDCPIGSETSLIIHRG
Sequence of MAGI2_5, Q86UL8 (Q86UL8 915-1017): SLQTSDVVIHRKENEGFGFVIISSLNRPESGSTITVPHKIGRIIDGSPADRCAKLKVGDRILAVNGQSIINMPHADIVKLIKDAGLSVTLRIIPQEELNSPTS
Sequence of DLG4_1, P78352 (P78352 62-152): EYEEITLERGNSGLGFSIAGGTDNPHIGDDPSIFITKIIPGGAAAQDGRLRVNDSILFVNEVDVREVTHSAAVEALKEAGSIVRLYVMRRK
Sequence of DLG4_2, P78352 (P78352 155-259): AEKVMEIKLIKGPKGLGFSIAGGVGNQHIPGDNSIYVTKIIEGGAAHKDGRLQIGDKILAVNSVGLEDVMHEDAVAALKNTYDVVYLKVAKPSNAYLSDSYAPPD
Sequence of LDB3, O75112 (O75112 1-94): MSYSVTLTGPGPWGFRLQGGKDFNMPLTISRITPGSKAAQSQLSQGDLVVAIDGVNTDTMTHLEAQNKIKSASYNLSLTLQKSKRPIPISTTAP
Sequence of Inadl_8, Q8NI35 (Q8NI35 1425-1530): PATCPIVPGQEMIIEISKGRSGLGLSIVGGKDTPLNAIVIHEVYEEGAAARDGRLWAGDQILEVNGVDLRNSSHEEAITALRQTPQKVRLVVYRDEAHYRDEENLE
Sequence of TJP1_2, Q07157 (Q07157 181-274): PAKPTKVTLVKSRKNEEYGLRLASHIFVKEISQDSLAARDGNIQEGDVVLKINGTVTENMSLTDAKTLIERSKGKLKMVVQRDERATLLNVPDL
Sequence of LAP2, Q96RT1 (Q96RT1 other isoform, or with tags, fused parts or gaps): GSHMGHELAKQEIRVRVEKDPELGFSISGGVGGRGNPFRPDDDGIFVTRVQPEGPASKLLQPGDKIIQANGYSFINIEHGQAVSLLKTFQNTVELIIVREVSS
Sequence of FRMPD3, Q5JV73 (Q5JV73 12-100): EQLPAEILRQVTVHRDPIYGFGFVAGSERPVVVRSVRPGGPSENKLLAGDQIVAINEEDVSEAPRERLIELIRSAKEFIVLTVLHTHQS
Sequence of MAGI1_1, Q96QZ7 (Q96QZ7 1-106): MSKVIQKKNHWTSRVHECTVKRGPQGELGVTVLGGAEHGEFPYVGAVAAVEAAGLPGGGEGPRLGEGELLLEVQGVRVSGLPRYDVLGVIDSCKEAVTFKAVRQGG
Sequence of GRASP, Q7Z6J2 (Q7Z6J2 96-193): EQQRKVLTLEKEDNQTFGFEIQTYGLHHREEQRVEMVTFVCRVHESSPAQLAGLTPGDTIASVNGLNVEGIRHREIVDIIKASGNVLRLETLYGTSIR
Sequence of IL16_4, Q14005 (Q14005 1229-1329): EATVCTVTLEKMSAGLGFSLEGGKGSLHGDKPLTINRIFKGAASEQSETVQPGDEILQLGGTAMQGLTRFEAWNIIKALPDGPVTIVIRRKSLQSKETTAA
Sequence of DLG4_3, P78352 (P78352 306-403): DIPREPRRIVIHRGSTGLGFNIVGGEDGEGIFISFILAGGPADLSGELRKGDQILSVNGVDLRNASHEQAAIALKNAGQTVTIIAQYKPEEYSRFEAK
Sequence of GRIP2_4, Q9C0E4 (Q9C0E4 446-548): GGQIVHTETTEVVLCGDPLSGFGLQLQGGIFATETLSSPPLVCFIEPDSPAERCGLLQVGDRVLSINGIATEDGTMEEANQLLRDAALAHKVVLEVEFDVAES
Sequence of IL16_3, Q14005 (Q14005 1107-1207): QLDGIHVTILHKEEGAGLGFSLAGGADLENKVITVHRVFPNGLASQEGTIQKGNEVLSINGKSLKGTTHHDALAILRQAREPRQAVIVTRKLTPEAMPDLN
Sequence of FRMPD4, Q14CM0 (Q14CM0 67-160): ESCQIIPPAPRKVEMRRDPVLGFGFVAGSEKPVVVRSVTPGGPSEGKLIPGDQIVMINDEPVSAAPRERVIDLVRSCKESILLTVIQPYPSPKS

B1: SARS-Cov2-3a, P0DTC3 (peptide)
chain: YDEPTTTTSVPL
pKd (FRMPD3, Q5JV73; [1]): below the threshold
pKd (MAGI1_1, Q96QZ7; [1]): below the threshold
pKd (LIN7C, Q9NUP9; [1]): below the threshold
pKd (FRMPD4, Q14CM0; [1]): 3.97
pKd (PDZRN3_1, Q9UPQ7; [1]): below the threshold
pKd (GRIP2_4, Q9C0E4; [1]): below the threshold
pKd (DLG1_2, Q12959; [1]): below the threshold
pKd (MAGI2_5, Q86UL8; [1]): below the threshold
pKd (DLG4_1, P78352; [1]): below the threshold
pKd (HTRA1, Q92743; [1]): below the threshold
pKd (GORASP1, Q9BQQ3; [1]): below the threshold
pKd (DLG4_2, P78352; [1]): below the threshold
pKd (GRIP2_7, Q9C0E4; [1]): below the threshold
pKd (Inadl_4, Q8NI35; [1]): below the threshold
pKd (HTRA4, P83105; [1]): below the threshold
pKd (LDB3, O75112; [1]): below the threshold
pKd (PDLIM1, O00151; [1]): below the threshold
pKd (DLG4_3, P78352; [1]): below the threshold
pKd (LNX2_2, Q8N448; [1]): below the threshold
pKd (GRASP, Q7Z6J2; [1]): 3.83
pKd (Inadl_5, Q8NI35; [1]): below the threshold
pKd (GOPC, Q9HD26; [1]): below the threshold
pKd (ARHGAP21, Q5T5U3; [1]): 3.75
pKd (MAGI2_3, Q86UL8; [1]): below the threshold
pKd (IL16_4, Q14005; [1]): below the threshold
pKd (LNX1_1, Q8TBB1; [1]): below the threshold
pKd (TJP1_2, Q07157; [1]): 4.56
pKd (LAP2, Q96RT1; [1]): below the threshold
pKd (Inadl_8, Q8NI35; [1]): below the threshold
pKd (DLG2_3, Q15700; [1]): below the threshold
pKd (APBA2_2, Q99767; [1]): below the threshold
pKd (IL16_3, Q14005; [1]): below the threshold
pKd (MAGI2_2, Q86UL8; [1]): below the threshold

B2: ADRB1, P08588 (peptide)
chain: RPGFASESKV
pKd (FRMPD3, Q5JV73; [2]): below the threshold
pKd (MAGI1_1, Q96QZ7; [2]): below the threshold
pKd (LIN7C, Q9NUP9; [2]): below the threshold
pKd (FRMPD4, Q14CM0; [2]): below the threshold
pKd (PDZRN3_1, Q9UPQ7; [2]): 3.92
pKd (GRIP2_4, Q9C0E4; [2]): below the threshold
pKd (DLG1_2, Q12959; [2]): 4.49
pKd (MAGI2_5, Q86UL8; [2]): below the threshold
pKd (DLG4_1, P78352; [2]): 4.03
pKd (HTRA1, Q92743; [2]): below the threshold
pKd (GORASP1, Q9BQQ3; [2]): below the threshold
pKd (DLG4_2, P78352; [2]): 4.22
pKd (GRIP2_7, Q9C0E4; [2]): below the threshold
pKd (Inadl_4, Q8NI35; [2]): below the threshold
pKd (HTRA4, P83105; [2]): below the threshold
pKd (LDB3, O75112; [2]): below the threshold
pKd (PDLIM1, O00151; [2]): below the threshold
pKd (DLG4_3, P78352; [2]): below the threshold
pKd (LNX2_2, Q8N448; [2]): below the threshold
pKd (GRASP, Q7Z6J2; [2]): below the threshold
pKd (Inadl_5, Q8NI35; [2]): below the threshold
pKd (GOPC, Q9HD26; [2]): 3.64
pKd (ARHGAP21, Q5T5U3; [2]): 3.98
pKd (MAGI2_3, Q86UL8; [2]): below the threshold
pKd (IL16_4, Q14005; [2]): below the threshold
pKd (LNX1_1, Q8TBB1; [2]): 3.7
pKd (TJP1_2, Q07157; [2]): below the threshold
pKd (LAP2, Q96RT1; [2]): 3.95
pKd (Inadl_8, Q8NI35; [2]): 3.73
pKd (DLG2_3, Q15700; [2]): 3.75
pKd (APBA2_2, Q99767; [2]): below the threshold
pKd (IL16_3, Q14005; [2]): below the threshold
pKd (MAGI2_2, Q86UL8; [2]): 4.6

B3: MAP7D2, Q96T17 (peptide)
chain: GQETPLNTFC
pKd (FRMPD3, Q5JV73; [2]): below the threshold
pKd (MAGI1_1, Q96QZ7; [2]): below the threshold
pKd (LIN7C, Q9NUP9; [2]): below the threshold
pKd (FRMPD4, Q14CM0; [2]): below the threshold
pKd (PDZRN3_1, Q9UPQ7; [2]): below the threshold
pKd (GRIP2_4, Q9C0E4; [2]): below the threshold
pKd (DLG1_2, Q12959; [2]): below the threshold
pKd (MAGI2_5, Q86UL8; [2]): below the threshold
pKd (DLG4_1, P78352; [2]): below the threshold
pKd (HTRA1, Q92743; [2]): 3.79
pKd (GORASP1, Q9BQQ3; [2]): 3.61
pKd (DLG4_2, P78352; [2]): 3.48
pKd (GRIP2_7, Q9C0E4; [2]): below the threshold
pKd (Inadl_4, Q8NI35; [2]): below the threshold
pKd (HTRA4, P83105; [2]): below the threshold
pKd (LDB3, O75112; [2]): below the threshold
pKd (PDLIM1, O00151; [2]): below the threshold
pKd (DLG4_3, P78352; [2]): 3.6
pKd (LNX2_2, Q8N448; [2]): below the threshold
pKd (GRASP, Q7Z6J2; [2]): below the threshold
pKd (Inadl_5, Q8NI35; [2]): below the threshold
pKd (GOPC, Q9HD26; [2]): below the threshold
pKd (ARHGAP21, Q5T5U3; [2]): below the threshold
pKd (MAGI2_3, Q86UL8; [2]): below the threshold
pKd (IL16_4, Q14005; [2]): below the threshold
pKd (LNX1_1, Q8TBB1; [2]): below the threshold
pKd (TJP1_2, Q07157; [2]): below the threshold
pKd (LAP2, Q96RT1; [2]): below the threshold
pKd (Inadl_8, Q8NI35; [2]): below the threshold
pKd (DLG2_3, Q15700; [2]): below the threshold
pKd (APBA2_2, Q99767; [2]): below the threshold
pKd (IL16_3, Q14005; [2]): below the threshold
pKd (MAGI2_2, Q86UL8; [2]): below the threshold

B4: JAM3, Q9BX67 (peptide)
chain: DFRHKSSFVI
pKd (FRMPD3, Q5JV73; [2]): below the threshold
pKd (MAGI1_1, Q96QZ7; [2]): below the threshold
pKd (LIN7C, Q9NUP9; [2]): 3.93
pKd (FRMPD4, Q14CM0; [2]): below the threshold
pKd (PDZRN3_1, Q9UPQ7; [2]): below the threshold
pKd (GRIP2_4, Q9C0E4; [2]): below the threshold
pKd (DLG1_2, Q12959; [2]): below the threshold
pKd (MAGI2_5, Q86UL8; [2]): below the threshold
pKd (DLG4_1, P78352; [2]): below the threshold
pKd (HTRA1, Q92743; [2]): 4.64
pKd (GORASP1, Q9BQQ3; [2]): 4.82
pKd (DLG4_2, P78352; [2]): below the threshold
pKd (GRIP2_7, Q9C0E4; [2]): below the threshold
pKd (Inadl_4, Q8NI35; [2]): below the threshold
pKd (HTRA4, P83105; [2]): below the threshold
pKd (LDB3, O75112; [2]): 3.76
pKd (PDLIM1, O00151; [2]): below the threshold
pKd (DLG4_3, P78352; [2]): below the threshold
pKd (LNX2_2, Q8N448; [2]): 4.15
pKd (GRASP, Q7Z6J2; [2]): below the threshold
pKd (Inadl_5, Q8NI35; [2]): below the threshold
pKd (GOPC, Q9HD26; [2]): below the threshold
pKd (ARHGAP21, Q5T5U3; [2]): below the threshold
pKd (MAGI2_3, Q86UL8; [2]): below the threshold
pKd (IL16_4, Q14005; [2]): below the threshold
pKd (LNX1_1, Q8TBB1; [2]): below the threshold
pKd (TJP1_2, Q07157; [2]): below the threshold
pKd (LAP2, Q96RT1; [2]): below the threshold
pKd (Inadl_8, Q8NI35; [2]): below the threshold
pKd (DLG2_3, Q15700; [2]): 3.52
pKd (APBA2_2, Q99767; [2]): below the threshold
pKd (IL16_3, Q14005; [2]): below the threshold
pKd (MAGI2_2, Q86UL8; [2]): below the threshold
